# Reference: US20260191907A1 (INSTITUT CURIE, published 2026)
# T1: Recombinant FGFR1 (G&P Biosciences) (UniProt P11362 22-376, limits assumed)
# T1 construct: Immobilised on the SPR chip
# T1 sequence (looked up): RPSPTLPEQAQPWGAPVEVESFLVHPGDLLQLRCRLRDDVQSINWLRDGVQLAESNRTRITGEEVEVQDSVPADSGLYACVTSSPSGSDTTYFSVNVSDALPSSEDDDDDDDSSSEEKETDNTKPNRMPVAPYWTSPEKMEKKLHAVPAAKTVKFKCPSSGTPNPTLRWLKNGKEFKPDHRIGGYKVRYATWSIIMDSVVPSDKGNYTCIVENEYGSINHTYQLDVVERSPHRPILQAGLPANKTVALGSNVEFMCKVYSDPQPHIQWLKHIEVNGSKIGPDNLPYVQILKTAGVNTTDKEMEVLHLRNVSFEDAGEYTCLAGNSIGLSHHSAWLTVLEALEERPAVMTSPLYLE
# T2: Recombinant FGFR3 (G&P Biosciences) (UniProt P22607 23-375, limits assumed)
# T2 construct: Immobilised on the SPR chip
# T2 sequence (looked up): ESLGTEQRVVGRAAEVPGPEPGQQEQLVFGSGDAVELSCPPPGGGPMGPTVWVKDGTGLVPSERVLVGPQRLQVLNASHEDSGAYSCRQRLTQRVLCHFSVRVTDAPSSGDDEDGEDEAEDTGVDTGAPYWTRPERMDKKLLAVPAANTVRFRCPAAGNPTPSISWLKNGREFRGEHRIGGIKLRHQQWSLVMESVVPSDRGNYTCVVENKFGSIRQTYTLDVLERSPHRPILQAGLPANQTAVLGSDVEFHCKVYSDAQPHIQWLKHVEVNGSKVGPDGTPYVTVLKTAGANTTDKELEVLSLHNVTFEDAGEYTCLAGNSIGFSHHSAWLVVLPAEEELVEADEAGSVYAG
# T3: Recombinant FGFR4 (G&P Biosciences) (human, UniProt P22455 22-369)
# T3 construct: Bought protein; the SPR method says only 'Recombinant; also called rFGFR4; extracellular FGFR4
# T3 sequence: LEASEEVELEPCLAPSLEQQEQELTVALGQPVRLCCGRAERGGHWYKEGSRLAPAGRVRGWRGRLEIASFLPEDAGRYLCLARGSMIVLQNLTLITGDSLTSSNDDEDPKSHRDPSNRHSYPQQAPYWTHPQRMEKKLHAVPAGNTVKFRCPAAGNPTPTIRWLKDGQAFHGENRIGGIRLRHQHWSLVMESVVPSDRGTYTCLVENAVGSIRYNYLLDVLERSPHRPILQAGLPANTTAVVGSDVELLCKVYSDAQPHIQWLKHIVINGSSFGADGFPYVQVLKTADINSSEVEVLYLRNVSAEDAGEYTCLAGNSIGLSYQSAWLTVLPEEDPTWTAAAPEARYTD
# Tests used:
# [1] = molecular target: T1, Recombinant FGFR1 (G&P Biosciences); test: SPR, FGFR1 immobilised, nanobody as analyte at five concentrations
# Description: (§1) Single cycle kinetics analysis was performed with the BIAcore® T200 instrument (GE Healthcare) on CMD200M sensor chips (XanTec bioanalytics GmbH) activated with a mixture of 300 mM NHS (N-hydroxysuccinimide) and 50 mM EDC (N-ethyl-N′-(dimethylaminopropyl) carbodiimide). Recombinant FGFR1, FGFR2, FGFR3 and FGFR4 (G&P Biosciences) were immobilized on the activated biosensors (800 to 12′000 RU; 1 RU=1 pg/mm²) followed by a blocking step with 1M ethanolamine. One flow channel per chip was used as a reference to provide background corrections. The nanobodies were injected at 5 different concentrations followed by a dissociation phase. Koff-rates were determined from a final dissociation step after the last injection. The measurements with FGFR4 were performed for each nanobody on freshly immobilized protein due to strong binding and incomplete dissociation from the surface. Immobilization flow rate was 5 μl/min and binding studies were performed at 30 μl/min. Binding parameters were determined with the heterogeneous ligand model fit of the BIAevaluation software. The black curves represent the measured data and red curves show the performed fit analysis.
# (§2) To determine the binding affinity of the nanobodies to FGFR4, we performed surface plasmon resonance (SPR) spectroscopy with recombinant FGFR4. As already mentioned above, FGFR1 and FGFR2 are expressed on Rh4-FR4ko cells and flow cytometry analysis indicated no binding of the nanobodies to the cells. To further confirm FGFR4-specificity, we included also affinity measurements with recombinant FGFR1, FGFR2 and FGFR3. Nanobodies A8, B1, B5, F8, and mCh were injected in five different concentrations on a FGFR coated chip. Except for the negative control mCh, calculated KD values for FGFR4 binding were in the nano- and picomolar range (FIG. 3; Table 2). Affinity parameters could not be fitted with a 1:1 binding model and best fits were obtained with the heterogeneous ligand model of the BIAevaluation software resulting in two KD values for each candidate.
# [2] = molecular target: T2, Recombinant FGFR3 (G&P Biosciences); test: SPR, FGFR3 immobilised, nanobody as analyte at five concentrations
# Description: as §1, §2
# [3] = molecular target: T3, Recombinant FGFR4 (G&P Biosciences); test: SPR (BIAcore T200), single cycle kinetics, FGFR4 amine-immobilised, nanobody as analyte, heterogeneous ligand model, component 1 (KD1)
# Description: (§3) FIG. 3: Affinity determination of nanobodies to recombinant protein via surface plasmon resonance spectroscopy. Single cycle kinetics analysis was performed on immobilized FGFR4 through covalent amine binding on the dextran based sensor chip. The analytes A8, B1, B5, F8 and mCh were injected in 5 different concentrations followed by a dissociation phase. A final dissociation step was added after the last injection step to determine Koff rates for the KD calculations. The black curves represent the measured data and red curves show the fit analysis (heterogeneous ligand model) performed with the BIAevaluation software.
# as §1
# (§4) To determine the binding affinity of the nanobodies to FGFR4, we performed surface plasmon resonance (SPR) spectroscopy with recombinant FGFR4. As already mentioned above, FGFR1 and FGFR2 are expressed on Rh4-FR4ko cells and flow cytometry analysis indicated no binding of the nanobodies to the cells. To further confirm FGFR4-specificity, we included also affinity measurements with recombinant FGFR1, FGFR2 and FGFR3. Nanobodies A8, B1, B5, F8, and mCh were injected in five different concentrations on a FGFR coated chip.
# [4] = molecular target: T3, Recombinant FGFR4 (G&P Biosciences); test: SPR (BIAcore T200), single cycle kinetics, FGFR4 amine-immobilised, nanobody as analyte, heterogeneous ligand model, component 2 (KD2)
# Description: as §3, §1, §4
# [5] = molecular target: T3, Recombinant FGFR4 (G&P Biosciences); test: SPR (BIAcore T200), single cycle kinetics, FGFR4 amine-immobilised, nanobody as analyte, heterogeneous ligand model, component 1 (kon1)
# Description: as §3, §1, §4
# [6] = molecular target: T3, Recombinant FGFR4 (G&P Biosciences); test: SPR (BIAcore T200), single cycle kinetics, FGFR4 amine-immobilised, nanobody as analyte, heterogeneous ligand model, component 2 (koff2)
# Description: as §3, §1
# To determine the binding affinity of the nanobodies to FGFR4, we performed surface plasmon resonance (SPR) spectroscopy with recombinant FGFR4. As already mentioned above, FGFR1 and FGFR2 are expressed on Rh4-FR4ko cells and flow cytometry analysis indicated no binding of the nanobodies to the cells. […]
Binder,binding result [1],binding result [2],Kd [3],Kd [4],kon [5],koff [6]
"F8 nanobody (anti-FGFR4 sdAb, Gimli library) (VHH, Recombinant nanobody of about 17 kDa; also called F8 sdAb; not shown: C-terminal Myc/6xHis-tag and an additional cysteine) VHH: EVQLVESGGGLVQPGGSLRLSCAASGTGYALDDMGWVRQAPGKGLEWVSAISDDESMADYYADSVKGRFTISRDNSKNTVYLQMNSLRAEDTAVYYCASYKEYKYQSGHHYFAYRGQGTLVTVSS",no binding,no binding,19.1 pM,4140 pM,54500 M⁻¹ s⁻¹,0.00557 s⁻¹
"B5 nanobody (anti-FGFR4 sdAb, NaLi-H1 library) (VHH, Recombinant nanobody of about 17 kDa; also called B5 sdAb; not shown: C-terminal Myc/6xHis-tag and an additional cysteine) VHH: EVQLQASGGGFVQPGGSLRLSCAASGRTSWLTTMGWFRQAPGKEREFVSAISSFSSKQGYYADSVKGRFTISRDNSKNTVYLQMNSLRAEDTATYYCAYASYPRHQGNGRWKDFVEYWGQGTQVTVSS",no binding,no binding,308 pM,0.216 pM,1.84e+06 M⁻¹ s⁻¹,

# Now those with a lower Kd [3], led by results:
binding result [1],binding result [2],Kd [3],Kd [4],kon [5],koff [6],Binder
no binding,no binding,0.00422 pM,36800 pM,314000 M⁻¹ s⁻¹,0.00245 s⁻¹,"A8 nanobody (anti-FGFR4 sdAb, NaLi-H1 library) (VHH, also called A8 sdAb; not shown: C-terminal Myc/6xHis-tag and an additional cysteine) VHH: EVQLQASGGGFVQPGGSLRLSCAASGRTYSRDTMGWFRQAPGKEREFVSAISSRHSHTTYYADSVKGRFTISRDNSKNTVYLQMNSLRAEDTATYYCAEWDVFDMHYALPPMWYWGQGTQVTVSS"
no binding,no binding,1.06 pM,4600 pM,1.11e+06 M⁻¹ s⁻¹,0.000992 s⁻¹,"B1 nanobody (anti-FGFR4 sdAb, NaLi-H1 library) (VHH, also called B1 sdAb; not shown: C-terminal Myc/6xHis-tag and an additional cysteine) VHH: EVQLQASGGGFVQPGGSLRLSCAASGYTSRSSAMGWFRQAPGKEREFVSAISDLTGYPYYYADSVKGRFTISRDNSKNTVYLQMNSLRAEDTATYYCAAYQDDKWTYGSQHGKYWGQGTQVTVSS"
